Laboratory results from the supplement of paper PMC10567573.
± gives the standard deviation.

Assay: protein stability index of a GFP-peptide fusion (GPS, HEK-293T) (PSI 1-6); higher = more stable
[1] = treatment: DMSO, c terminus: a fixed tail appended
[2] = treatment: MLN4924 1 uM, 8 h, c terminus: a fixed tail appended
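Also: 24-mer peptide tiles fused after GFP, lentivirally expressed, FACS-sorted into six equal bins by GFP/DsRed ratio, decoded by Illumina sequencing, PSI is the read-weighted mean bin number.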

| Sequence | protein stability index [1] | protein stability index [2] | protein stability index (treatment: DMSO, c terminus: native) | protein stability index (treatment: MLN4924 1 uM, 8 h, c terminus: native) |
| --- | --- | --- | --- | --- |
| NATWLVNSAAHLFGYRPYDKNISP [SCD] | 2.4 ± 0.19 | 2.34 ± 0.41 |  |  |
| LSALDSKANNLSSLSKKYRQDAKY [SEC22B] | 3.87 ± 0.19 | 3.98 ± 0.3 |  |  |
| MFSVLSYGRLVARAVLGGLSQTDP [PPTC7] | 2.01 ± 0.74 | 2.85 ± 1.3 |  |  |
| HQLDFVQVKASSPVPATPILQLEE [TRIM9] | 4.54 ± 0.094 | 4.49 ± 0.33 |  |  |
| DAASVYTLPAGADFLMCYSVAEGY [CASP6] | 2.34 ± 0.22 | 2.33 ± 0.25 |  |  |
| RKSLLVVHQRTHTGEKPHTCSECG [ZNF649] | 3.98 ± 0.21 | 3.95 ± 0.42 |  |  |
| NKTGVSPYSKTLVLQTSEGKALQQ [TRIM9] | 4.19 ± 0.14 | 4.22 ± 0.073 |  |  |
| KAEGGEEDSLGCLTADTKEVTASQ [IRX6] | 5.49 ± 0.22 | 5.48 ± 0.24 |  |  |
| KKWQQYRSVRRERLKEMKLLRDQF [FAM9B] | 2.59 ± 0.27 | 2.71 ± 0.2 |  |  |
| RHGGLSLVQTTDFFYPLVEDPYMM [SEPHS2] | 2.3 ± 0.25 | 2.24 ± 0.28 |  |  |
| EDDDEEDTDKLLNSASDPSLKDGL [PSD2] | 5.51 ± 0.3 | 5.46 ± 0.33 |  |  |
| ENSGILQGKLIKRQRLAKNDRGDH [EFHC1] | 3.85 ± 0.32 | 4.37 ± 0.11 |  |  |
| VGSDDLERIEARLATLEGDDPSLR [PSD2] | 5.32 ± 0.17 | 5.42 ± 0.17 |  |  |
| FSRVCRLHRGQLSLFCLEDKELLC [TRIM35] | 2.22 ± 0.56 | 2.19 ± 0.18 |  |  |
| GAGAGSSLLDVAEPGGPGWLPESD [SMAD6] | 5.23 ± 0.19 | 5.01 ± 0.25 |  |  |
| TMARALGRFKLSIPHTHLLATLDP [WDR88] | 2.19 ± 0.27 | 2.21 ± 0.18 |  |  |
| LWFYNTSLKFFLNKPMLADVVFEI [RHOBTB3] | 2.82 ± 0.32 | 3.04 ± 1.1 |  |  |
| RKGCLRFQLPERGSRLCLYEDGTE [DFFB] | 3.34 ± 0.39 | 3.47 ± 0.21 |  |  |
| QLFTEYGRLAMDEIFQKPFQTLMF [ATL3] | 2.33 ± 0.49 | 2.35 ± 0.47 |  |  |
| AEALFDFTGNSKLELNFKAGDVIF [NCF4] | 2.05 ± 0.29 | 2.23 ± 0.27 |  |  |
| EKESTELRAEEIETRVTSGSMEAL [PPFIA4] | 5.53 ± 0.17 | 5.45 ± 0.27 |  |  |
| YLNSFLHQRIPQSVRILGSLVAIL [SLC29A1] | 2.15 ± 0.25 | 2.23 ± 0.21 |  |  |

| Sequence | protein stability index [1] | protein stability index [2] | protein stability index (treatment: DMSO, c terminus: native) | protein stability index (treatment: MLN4924 1 uM, 8 h, c terminus: native) |
| --- | --- | --- | --- | --- |
| NTRNYEGQTPLAVSISISGSSRPC [ASB7] | 3.23 ± 0.2 | 3.5 ± 0.27 |  |  |
| CVVCGDKSSGKHYGQFTCEGCKSF [NR2F2] | 4.76 ± 0.4 | 4.99 ± 0.14 |  |  |
| SVFKKGRRRVPVRNLGKVVHYAKV [PLEKHN1] | 2.36 ± 0.17 | 2.37 ± 0.84 |  |  |
| QAINNAINYLGAESLRPLVQTPPG [IKZF1] | 2.39 ± 0.29 | 2.25 ± 0.32 |  |  |
| PFRGDEGIFEESFIEERRQGLEQF [SNX12] | 4.518 ± 0.041 | 4.42 ± 0.18 |  |  |
| EDHGLVTCSADHLIILWKNGERES [WDR41] | 3.27 ± 0.28 | 2.74 ± 0.21 |  |  |
| GGPADLAGLEDEDVIIEVNGVNVL [PDZK1] |  | 4.46 ± 0.32 |  |  |
| GIENEEDTSKQKKMETMYPFIVTL [ZNF449] | 2.39 ± 0.38 | 2.36 ± 0.1 |  |  |
| SDKEIVAEAERLDVKAMGPLVLTE [EIF5] | 5.08 ± 0.054 | 5.23 ± 0.31 |  |  |
| ENKPSTCSFSIERILGLDQKKDCV [HESX1] | 3.12 ± 0.49 | 3.42 ± 0.47 |  |  |
| TFFEVSPLCNFNVIESFTELSRIV [RAB40C] | 2.46 ± 0.63 | 2.15 ± 0.43 |  |  |
| DLVDSLKLAVFMWLMTYVGAVFNG [RTN3] | 3.02 ± 0.59 | 3.2 ± 0.051 |  |  |
| LPYTDGLSWELLDSHLGGNARGMG [CTBP1-DT] | 2.98 ± 0.28 | 3.29 ± 0.14 |  |  |
| QARKALFEKWEQETAAGKGKGEAR [SMTNL2] | 4.836 ± 0.03 | 4.84 ± 0.29 |  |  |
| GDKNEEQVLNAIEAYTEHRPEITS [ZER1] | 5.33 ± 0.2 | 5.16 ± 0.22 |  |  |
| PALSQLVNLYLGRSHFLWKEPATM [TCF25] | 3.25 ± 0.75 | 3.02 ± 0.9 |  |  |
| RGVPLLEWETEVEMDKLRASDIME [CLCN6] | 4.2 ± 0.043 | 4.3 ± 0.13 |  |  |
| GTDQVCVLEWGAEGVAGKSGLEKE [FCHSD1] | 5.01 ± 0.25 | 5.07 ± 0.15 |  |  |
| YFRHADPTWQNSIRHNLSLNKCFI [FOXJ1] | 2.45 ± 0.41 | 2.23 ± 0.31 |  |  |
| IDNTTVIYNSNIFTDPFFIVETLC [KCNA1] | 2.72 ± 0.67 | 2.53 ± 0.37 |  |  |
| RVEEQAILDAMAEETRQKQLLADE [TRIM35] | 5.57 ± 0.26 | 5.38 ± 0.15 |  |  |
| VPGLLLSYLMLVTVMMWPLAVYHR [RETREG3] | 3.33 ± 0.44 | 3 ± 0.31 |  |  |

| Sequence | protein stability index [1] | protein stability index [2] | protein stability index (treatment: DMSO, c terminus: native) | protein stability index (treatment: MLN4924 1 uM, 8 h, c terminus: native) |
| --- | --- | --- | --- | --- |
| EQGEPLWTLEDEIHSPAHPEIEKA [ZNF649] | 5.44 ± 0.44 | 5.57 ± 0.22 |  |  |
| LSLFIPESPRWLYSQGRLSEAEEA [SLC22A15] | 3.19 ± 0.35 | 3.44 ± 0.35 |  |  |
| GPLGDCLRDWEDLQQDFQNIQETH [TMEM120A] | 4.63 ± 0.31 | 4.41 ± 0.32 |  |  |
| LQRDFLKQRPTKLKSLIRLVKHWY [OAS1] | 3.3 ± 0.41 | 3.15 ± 0.23 |  |  |
| PVSDTPDEGDEPMPIPEDLSTTSG [IKZF1] | 5.75 ± 0.25 | 5.66 ± 0.3 |  |  |
| DFDYNAIDNANRILGPAYFVTYVF [PKD2L1] | 2.73 ± 0.6 | 2.66 ± 0.59 |  |  |
| THSREKSSQESGEEAGSQENHPQE [CHGB] | 5.54 ± 0.39 | 5.6 ± 0.18 |  |  |
| LTLQVYREQADSCREQLDIMNDLS [TRIM14] | 2.99 ± 0.24 | 2.95 ± 0.1 |  |  |
| EEKPQENKTWREQYLRLPDAPEQR [ELOA2] | 5.18 ± 0.28 | 4.88 ± 0.11 |  |  |
| ATDPFVAFHINKGLVKKYMNSLLI [FADS1] | 2.46 ± 0.59 | 2.64 ± 0.43 |  |  |
| KGSPDVSASSDEPYARIQQSRRQC [SMIM2] | 4.74 ± 0.18 | 5.02 ± 0.2 |  |  |
| SGPARVIAIVSVMVILISIVIFCL [KCNA1] | 2.18 ± 0.14 | 2.22 ± 0.32 |  |  |
| KDIAGEFKEQLQALIPYVLNPSKL [ATL3] | 2.19 ± 0.11 | 2.32 ± 0.18 |  |  |
| GGTPIRGALQIEQSEESDQGKYEC [PTPRD] | 5.57 ± 0.38 | 5.4 ± 0.31 |  |  |
| HDSVVEMIRKGGDQTSLLVVDKET [PDZK1] |  | 4.76 ± 0.33 |  |  |
| MADQDPAGISPLQQMVASGTGAVV [SLC25A39] | 4.52 ± 0.22 | 4.42 ± 0.13 |  |  |
| VPRYTGVAPQDQCKLTCQAQALGY [ADAMTS4] | 2.4 ± 0.47 | 2.65 ± 0.36 |  |  |
| ESPRKRKKATEAIDSLRKSKRLRN [FBXO28] | 5.3 ± 0.23 | 5.33 ± 0.14 |  |  |
| RYCQCNPDDSTSEDGIHTLTCALM [PSD2] | 3.96 ± 0.32 | 4.09 ± 0.18 |  |  |
| RGRHEQSPTSRPRKVSSLPPRSC [C22orf15] |  |  | 3.06 ± 0.81 | 3.5 ± 0.85 |
| TGEDVKVILKNSQGEEVAQRSTVF [LMNB1] | 4.7 ± 0.15 | 4.64 ± 0.09 |  |  |
